Target: T1, hTβRII (G4S)2-hFc (human)
T1 construct: 70 lacks the C-terminal lysine; Expressed in CHO cells
Test: SPR (Biacore), in vitro

T1 sequence (chain, as listed by the source limits assumed): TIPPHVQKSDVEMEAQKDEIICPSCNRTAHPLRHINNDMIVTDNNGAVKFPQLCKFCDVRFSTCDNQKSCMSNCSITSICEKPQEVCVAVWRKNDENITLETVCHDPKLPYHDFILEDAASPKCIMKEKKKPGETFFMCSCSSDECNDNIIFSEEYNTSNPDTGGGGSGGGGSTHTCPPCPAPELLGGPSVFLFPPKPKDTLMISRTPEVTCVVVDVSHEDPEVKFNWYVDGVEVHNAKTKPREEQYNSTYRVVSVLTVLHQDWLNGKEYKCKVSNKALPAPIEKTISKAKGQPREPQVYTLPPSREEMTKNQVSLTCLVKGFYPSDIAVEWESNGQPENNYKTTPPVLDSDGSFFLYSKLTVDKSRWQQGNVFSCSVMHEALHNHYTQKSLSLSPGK

B1: Human TGFβ2 (ligand, UniProt P61812 303-414, looked up)
chain: ALDAAYCFRNVQDNCCLRPLYIDFKRDLGWKWIHEPKGYNANFCAGACPYLWSSDTQHSRVLSLYNTINPEASASPCCVSQDLEPLTILYYIGKTPKIEQLSNMIVKSCKCS
B1: binds.

Reference: patent publication US20230398182A1 (ACCELERON PHARMA, published 2023)
